In paper PMC11798926:

B1: myc-tagged SynDIG4 (wild type) [rat] / HA-tagged μ2 AP subunit [not stated] (parent)
chain 1: MSSEKSGLPDSVPHTSPPPYNAPQPPAEPPIPPPQTAPSSHHHHHHHYHQSGTATLPRLGAGGLASAAAGAQRGPSSSATLPRPPHHAPPGPAAGAPPPGCATLPRMPPDPYLQETRFEGPLPPPPPAAAAPPPPAPAPTAQAPGFVVPTHAGAVGTLPLGGYVAPGYPLQLQPCTAYVPVYPVGTPYASGTPGGPGVTSTLPPPPQGPGLALLEPRRPPHDYMPIAVLTTICCFWPTGIIAIFKAVQVRTALARGDLVSAEIASREARNFSFISLAVGIAAMVLCTILTVVIIIAAQHHENYWDP
chain 2: MIGGLFIYNHKGEVLISRVYRDDIGRNAVDAFRVNVIHARQQVRSPVTNIARTSFFHVKRSNIWLAAVTKQNVNAAMVFEFLYKMCDVMAAYFGKISEENIKNNFVLIYELLDEILDFGYPQNSETGALKTFITQQGIKSQHQTKEEQSQITSQVTGQIGWRREGIKYRRNELFLDVLESVNLLMSPQGQVLSAHVSGRVVMKSYLSGMPECKFGMNDKIVIEKQGKGTADETSKSGKQSIAIDDCTFHQCVRLSKFDSERSISFIPPDGEFELMRYRTTKDIILPFRVIPLVREVGRTKLEVKVVIKSNFKPSLLAQKIEVRIPTPLNTSGVQVICMKGKAKYKASENAIVWKIKRMAGMKESQISAEIELLPTNDKKKWARPPISMNFEVPFAPSGLKVRYLKVFEPKLNYSDHDVIKWVRYIGRSGIYETRC

Variants of: B1
Test: co-immunoprecipitation (IP: HA, blot: myc), quantified
Conditions: with HA-tagged μ2 AP subunit; HEK293T cells; first bar chart of panel D (SD4 vs AVPA); parent: 100; read off a plot

**Q.** With chain 1 Y178A V181A as the variant, how does the percent of parent read?
**A.** The percent of parent was 45 %SD4.

Same assay, conditions: with HA-tagged μ2 AP subunit; HEK293T cells; third bar chart of panel D (SD4 vs AVPA vs ∆170-89); marked ns; parent: 100; read off a plot

**Q.** Which percent of parent does the source give for chain 1 Y178A V181A here?
**A.** Its percent of parent is 55 %SD4.
